Source: article PMC6262466, “Towards Initial Indications for a Thiol-Based Redox Control of Arabidopsis 5-Aminolevulinic Acid Dehydratase” (Antioxidants, 2018)

Molecular target: the molecule itself
Assay: non-reducing SDS-PAGE with immunoblot; 0.5 uM purified His-ALAD preincubated in PBS, untreated or oxidized (1 mM H2O2); non-reducing 10% SDS polyacrylamide gel; anti-His blot

B1: recombinant His-tagged ALAD (ALAD1 without the predicted transit peptide) (enzyme, Arabidopsis thaliana, UniProt Q9SFH9 53-430, looked up)
chain: ASESGNGHAKKLGMSDAECEAAVAAGNVPEAPPVPPKPAAPVGTPIIKPLNLSRRPRRNRASPVTRAAFQETDISPANFVYPLFIHEGEEDTPIGAMPGCYRLGWRHGLVQEVAKARAVGVNSIVLFPKVPEALKNSTGDEAYNDNGLVPRTIRLLKDKYPDLIIYTDVALDPYSSDGHDGIVREDGVIMNDETVHQLCKQAVSQARAGADVVSPSDMMDGRVGAIRSALDAEGFQNVSIMSYTAKYASSFYGPFREALDSNPRFGDKKTYQMNPANYREALIEAREDEAEGADILLVKPGLPYLDIIRLLRDKSPLPIAAYQVSGEYSMIKAGGVLKMIDEEKVMMESLMCLRRAGADIILTYFALQAATCLCGEKR
notes: Arabidopsis thaliana ALAD1 (HEMB1; AT1G69740) without the predicted transit peptide (ChloroP); also called recombinant ALAD; purified ALAD; source: E. coli Rosetta(DE3), pET28a, purified (Ni-NTA agarose); not shown: His6, N-terminal, kept
binding result: binds
